4 molecules from US20120090043A1, “TARGETS FOR RETROVIRUS ASSOCIATED DISEASES” (priority 2009, published 2012) can be followed below.

Test [1] relates to HIV-1 LTR promoter transactivation by HIV-1 Tat. The test is described as follows: Transactivation assay, HIV-1 LTR luciferase reporter with HIV-1 Tat. In kind it is cell-based. The following applies: HEK293 cells co-transfected with pHIV1LTR-Luc, HIV-1 Tat and the human ORF; relative luciferase activity 24 h post-transfection; positive if >=2 or <=0.5 and p<0.05. In short, it runs like this:
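HEK293 cells (10^4) were calcium-phosphate co-transfected with the HIV-1 LTR-luciferase reporter plus HIV-1 Tat, or the HTLV-1 LTR-luciferase reporter plus HTLV-1 Tax, each with a human ORF expression plasmid. A hit required relative activity ≥2 or ≤0.5 with paired t-test p<0.05.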
A general note: A reporter such as luciferase makes a cellular process visible.

Test [2] deals with HTLV-1 LTR promoter transactivation by HTLV-1 Tax. In words: Transactivation assay, HTLV-1 LTR luciferase reporter with HTLV-1 Tax. To be noted: HEK293 cells co-transfected with pHTLV1LTR-Luc, HTLV-1 Tax and the human ORF; relative luciferase activity 24 h post-transfection; positive if >=2 or <=0.5 and p<0.05. Format: cell-based.

B1: C10orf3: human host interactor protein, Gene ID 55165, expressed from transfected ORF vector (protein)
chain: MSSRSTKDLIKSKWGSKPSNSKSETTLEKLKGEIAHLKTSVDEITSGKGKLTDKERHRLLEKIRVLEAEKEKNAYQLTEKDKEIQRLRDQLKARYSTTTLLEQLEETTREGERREQVLKALSEEKDVLKQQLSAATSRIAELESKTNTLRLSQTVAPNCFNSSINNIHEMEIQLKDALEKNQQWLVYDQQREVYVKGLLAKIFELEKKTETAAHSLPQQTKKPESEGYLQEEKQKCYNDLLASAKKDLEVERQTITQLSFELSEFRRKYEETQKEVHNLNQLLYSQRRADVQHLEDDRHKTEKIQKLREENDIARGKLEEEKKRSEELLSQVQFLYTSLLKQQEEQTRVALLEQQMQACTLDFENEKLDRQHVQHQLHVILKELRKARNQITQLESLKQLHEFAITEPLVTFQGETENREKVAASPKSPTAALNESLVECPKCNIQYPATEHRDLLVHVEYCSK
Regarding B1, the HIV_LTR transactiv. in test [1] stood at 2.79 fold change. Further, in test [2], the HTLV_LTR transactiv. was found to be 0.41 fold change.

B2: TSC22D4: human host interactor protein, Gene ID 81628, expressed from transfected ORF vector (protein)
chain: MSGGKKKSSFQITSVTTDYEGPGSPGASDPPTPQPPTGPPPRLPNGEPSPDPGGKGTPRNGSPPPGAPSSRFRVVKLPHGLGEPYRRGRWTCVDVYERDLEPHSFGGLLEGIRGASGGAGGRSLDSRLELASLGLGAPTPPSGLSQGPTSWLRPPPTSPGPQARSFTGGLGQLVVPSKAKAEKPPLSASSPQQRPPEPETGESAGTSRAATPLPSLRVEAEAGGSGARTPPLSRRKAVDMRLRMELGAPEEMGQVPPLDSRPSSPALYFTHDASLVHKSPDPFGAVAAQKFSLAHSMLAISGHLDSDDDSGSGSLVGIDNKIEQAMDLVKSHLMFAVREEVEVLKEQIRELAERNAALEQENGLLRALASPEQLAQLPSSGVPRLGPPAPNGPSV
With B2, the HIV_LTR transactiv. in test [1] was 5.43 fold change. For the same molecule, in test [2], the HTLV_LTR transactiv. came to 3.75 fold change.

B3: TFIP11: human host interactor protein, Gene ID 24144, expressed from transfected ORF vector (protein)
chain: MSLSHLYRDGEGRIDDDDDERENFEITDWDLQNEFNPNRQRHWQTKEEATYGVWAERDSDDERPSFGGKRARDYSAPVNFISAGLKKGAAEEAELEDSDDEEKPVKQDDFPKDFGPRKLKTGGNFKPSQKGFAGGTKSFMDFGSWERHTKGIGQKLLQKMGYVPGRGLGKNAQGIINPIEAKQRKGKGAVGAYGSERTTQSMQDFPVVDSEEEAEEEFQKELSQWRKDPSGSKKKPKYSYKTVEELKAKGRISKKLTAPQKELSQVKVIDMTGREQKVYYSYSQISHKHNVPDDGLPLQSQQLPQSGKEAKAPGFALPELEHNLQLLIDLTEQEIIQNDRQLQYERDMVVNLFHELEKMTEVLDHEERVISNLSKVLEMVEECERRMQPDCSNPLTLDECARIFETLQDKYYEEYRMSDRVDLAVAIVYPLMKEYFKEWDPLKDCTYGTEIISKWKSLLENDQLLSHGGQDLSADAFHRLIWEVWMPFVRNIVTQWQPRNCDPMVDFLDSWVHIIPVWILDNILDQLIFPKLQKEVENWNPLTDTVPIHSWIHPWLPLMQARLEPLYSPIRSKLSSALQKWHPSDSSAKLILQPWKDVFTPGSWEAFMVKNIVPKLGMCLGELVINPHQQHMDAFYWVIDWEGMISVSSLVGLLEKHFFPKWLQVLCSWLSNSPNYEEITKWYLGWKSMFSDQVLAHPSVKDKFNEALDIMNRAVSSNVGAYMQPGARENIAYLTHTERRKDFQYEAMQERREAENMAQRGIGVAASSVPMNFKDLIETKAEEHNIVFMPVIGKRHEGKQLYTFGRIVIYIDRGVVFVQGEKTWVPTSLQSLIDMAK
The molecule B3 yielded an HIV_LTR transactiv. in test [1] of 0.19 fold change. In test [2], this molecule registered an HTLV_LTR transactiv. of 0.45 fold change.

B4: ZNF614: human host interactor protein, Gene ID 80110, expressed from transfected ORF vector (protein)
chain: MIKTQESLTLEDVAVEFSWEEWQLLDTAQKNLYRDVMVENYNHLVSLGYQTSKPDVLSKLAHGQEPWTTDAKIQNKNCPGIGKVDSHLQEHSPNQRLLKSVQQCNGQNTLRNIVHLSKTHFPIVQNHDTFDLYRKNLKSSLSLINQKRRHGINNPVEFIGGEKTLLHGKHERTHTKTRFSENAKCIHTKFQVFKHQRTQKIEKPHACIECEQTFLRKSQLIYHENICIQENPGSGQCEKLSRSVLFTKHLKTNTTDKICIPNEYRKGSTVKSSLITHQQTHTEEKSYMCSECGKGFTMKRYLIAHQRTHSGEKPYVCKECGKGFTVKSNLIVHQRTHTGEKPYICSECGKGFTMKRYLVVHQRTHTGEKPYMCSECGKGFTVKSNLIVHQRSHTGEKSYICSECGKGFTVKRTLVIHQRTHTGEKSYICNECGKGFTTKRTLIIHQRTHTGEKPYECNECGKAFSQKICLIQHERCHTGKTPFVCTECGKSYSHKYGLITHQRIHTGEKPYECNECGKAFTTKSVLNVHQRTHTGERPYGCSDCEKAFSHLSNLVKHKKMHTREMGRISQVENSCNGESQLLPYK
B4 registered an HIV_LTR transactiv. in test [1] of 0.28 fold change. The molecule further yielded an HTLV_LTR transactiv. in test [2] of 5.24 fold change.
